Measured values from the DeepSol protein solubility set.

Test: soluble on expression in E. coli; label from the status in PepcDB or PDB records

Sequence | soluble on expression in E. coli
MAHHHHHHMRRVVASRKAICEYRLYSQVSPQGYPVTAVTPQQIRRVPFYRHRKLYDLTTRELSEEAIRDFLPPKPAVPAGWSMEHKIGSCRFDLTKTMGADDSAREDLHVVALMEPKKYEQTYRMDNGERNGEEYLVFNLFIKKHQHSGGVEFGLTSIDMELVMDSLVVHSTDREMDYSIGALGPGKTTSVGTSFGQKLNIECRRCRDYRYRGPMLNELDDDLTDEILDYLDERGVNNGFAEYMMAQAHFLEQEEYLNWLRLLKQFAT | not soluble
MRLALFDLDNTLLGGDSDHAWGDYLYQRGILDAATYKSRNDEFYQDYLAGTLNMTDYLNFTLEILGNTDMAQLQEWHREFMRDCIEPIMLPKALELIAKHREAGDKLVVITATNRFVTAPIVARLGIETLLATECEMVDGRYTGRTTGVPCFREGKVTRLNQWLEDNAFSLEDSYFYSDSMNDLPLLEQVANPVAVDPDARLRAEAEQRGWPVITLRS | not soluble
MPVDLSKWSGPLSLQEVDEQPQHPLHVTYAGAAVDELGKVLTPTQVKNRPTSISWDGLDSGKLYTLVLTDPDAPSRKDPKYREWHHFLVVNMKGNDISSGTVLSDYVGSGPPKGTGLHRYVWLVYEQDRPLKCDEPILSNRSGDHRGKFKVASFRKKYELRAPVAGTCYQAEWDDYVPKLYEQLSGK | soluble
MSEDKDMKNRNAMTIKRFVDVEEDGEHGGSGEFAELFQESIKQHRVGEVVTGKVVHISNEFVLVDIGYKSEGCIAIDEFLDEDGNLTVKVGDEVKALFERKENQKGYAVLSRRKAERLAVWDVIDEAGGEGGIIEGKITGKVKGGLTVDIGVQAFLPASQVDLRPGGNLDKYIGTTDRFKVLKLNKKRGNIVLSRRVLMEEERESSRKETLATLAEGQVREGVVKNITDYGAFVDIGGVDGLLHVTDMSWGRLGHPSEILKPGDKLNVKVLKYDQEKGKISLGLKQVTPDPWVSVEQKYNQGDRVKGKVVSLTDYGAFIALEDGVEGLVHVSEMSWTRRLRHPSEILTVGDEVETVVLGVDMGNRRISLGLKQVQVNPWTQLEEKYPVGTKLEGQIKSITDFGVFIGIEEGIDGLVHVSDISWTKRIKHPGEVFTKGQTVQAVVLNIDPENERLSLGIKQLLLDPWSEIPVKYRPGTRVHGKVTSVTDFGVFLEIEEGIEGLIHVSELSREKVASPKEFTNVGDELDAVVLSVDESEKKIALSIKSLQMAAEKAEIESYMQAQGEATSNLGELLKVGFRKNGDGNDLEHHHHHH | not soluble
MSLKTKQEIVENWLPRYTQRQLIDFEPYILLTNFSHYLHVFAEHYGVPIVGEHTSMPNASAEGVTLINFGMGSANAATIMDLLWAIHPKAVIFLGKCGGLKLENALGDYLLPIAAIRGEGTSNDYLPEEVPSLPSFSVLRAISSAIQNKGKDYWTGTVYTTNRRVWEYDEKFKDYLRSTHASGVDMETATLMTVGFANKIPMGALLLISDRPMFPEGVKTEESDQLVTDNFAEEHLMLGIDALEIIRENKSSIKHIRFNWEGHHHHHH | soluble
MGSDKIHHHHHHMLTWRKHGLIYSPQAHPPLIGGAGYAQSPQALVFDDFVRIYFSTRELDDKNNKFISRVSYVDMDKNLQEILKVSAAPVIAHAELGTFDEHGIFPFNVLRHNGAVMAWTTGWNRRVSVSVDTSIGLAISHDGGDTFQRHATGPVMSASLHEPYLVGDAFVQHIEGRFHMWYIYGVGWKRQQSDSPPDRIYKIAHAVSDDGIDWVRESKPIIADLLGDDECQALPTVIKVGNRYHMIFCYRECFDFRLGSGRGYRLGYAWSDDLVTWHRDDTQVPAVSESGEWDSEMQCYPHLFQCDEKVYLLYNGNAFGKEGFGLAELTACSE | not soluble
MANVGGRRKPAADARLEVIQKLFPEAVVDGGIDWELLKRVFGGHERQEAYEFTWPGKAEARRLAELPASGVLRPDQAASKQWETTNNWYIEGDNLEALKLLRTSHAGTIQMIYIDPPYNTGKVLTYKDNWRKGKAVVPSGIQEEARGHVGWLNMMYPRLWVARELLAETGAIFISIDDTEQANLRKMCDEIFGERNFVATFIWQRAFSPVNMNKFASRNHDFILCYAKNIDRLAWYGLPRHPEADVRYANPDNDPRGPWMSGDLSVGPPIPEKIYEIVTPSGRVVSPPNGYCWRVTKERFAELAADNRIWFGKDGNGVPRLKRFLSEVKSTVTPLTIWTHDEVSHSQEAKKELKELFDGLAVMDYPKPVKLIQRMVALTTRDDDPILDFFSGSATTAHAVMQQNAEDGGRRSFIMVQLPERLAETSEAYRVGFRTICDIGRERIRRAGEKIVYETGKTELDIGFKVFRIERTNQPAR | not soluble
WLLAELTYRCPLQCPYCSNPLDFARQDKELTTEQWIEVFRQARAMGSVQLGFSGGEPLTRKDLPELIRAARDLGFYTNLITSGIGLTESKLDAFSEAGLDHIQISFQASDEVLNAALAGNKKAFQQKLTMAKAVKARDYPMVLNFVLHRHNIDQLDKIIELCIELEADDVELATCQFYGWAFLNREGLLPTREQIARAEQVVADYRQKMAASGNLTNLLFVTPDYYEERPKGCMGGWGSIFLSVTPEGTALPCH | not soluble
MNTAAGRKEDIRIPPRVAPDLNAPRVLVLNASYEPLQVTSIKRAITLLQYGVAEVLEQSRDVVRSPSTVMSVPSVIRLRRYVRRPRVGAVPFNRRNVLRRDHFTCQYCGSQDDLTMDHVHPRSRGGKHGWDNVVTACRTCNQRKGNLTPEEAGMPLHVPPHAPTFGVYAHGQFAHWQPEWSGYIRGLEHHHHHH | not soluble
MGGDSKGTYCGAPILGPGSAPKLSTKTKFWRSSTTPLPPGTYEPAYLGGKDPRVKGGPSLQQVMRDQLKPFTEPRGKPPKPSVLEAAKKTIINVLEQTIDPPEKWSFTQACASLDKTTSSGHPHHMRKNDCWNGESFTGKLADQASKANLMFEGGKNMTPVYTGALKDELVKTDKIYGKIKKRLLWGSDLATMIRCARAFGGLMDELKAHCVTLPIRVGMNMNEDGPIIFERHSRYKYHYDADYSRWDSTQQRAVLAAALEIMVKFSSEPHLAQVVAEDLLSPSVVDVGDFKISINEGLPSGVPCTSQWNSIAHWLLTLCALSEVTNLSPDIIQANSLFSFYGDDEIVSTDIKLDPEKLTAKLKEYGLKPTRPDKTEGPLVISEDLNGLTFLRRTVTRDPAGWFGKLEQSSILRQMYWTRGPNHEDPSETMIPHSQRPIQLMSLLGEAALHGPAFYSKISKLVIAELKEGGMDFYVPRQEPMFRWMRFSDLSTWEGDRNLAPSFVNEDGVEVDKLAAALEHHHHHH | soluble
MGEYYHATVNGVVEYGAFVDLSEHVSGLIHESTYSGDPDLAVDDDVIVHLSAVRDNGDLSFEFVDPEEYRTEQRSLEHHHHHH | not soluble
MICARIRPLISSPLAFTISTTKHSRINLRLLPRRSFSVMSSSTPQSQIIEHIVLFKTKDDADSTKITSMINNLNALAYLDQVLHISTSPLHRISSATAFTHVLHSRYESKEDLASYAAHPDHVRVVKESVLPICDDIMAVDWIADRIPGTVAPLPGSVAKLTLLKLKEDVADEAKSEITGVIKGLSEKFPGIDQITVGENFSPARAKGFSIASIAYFKDLSEMEAVDAQKELVNSQKDKVRDYVDSTIVVEFVVPSSSQSSSL | soluble
MADLFAGKPLINQEGKELDGGDALRGKKVVALYFSAMWCGSCRQFTPKLKRFYEALKAAGKEIEVVLVSRDREAEDLLEYLGHGGDWVAIPFGDERIQEYLKKYEVPTIPAFKLINNAGELLHDARADVTERGKDDAVALFDEWVEKFPAN | not soluble
MGSDKIHHHHHHKDDDNVETGAFDPSKPVAISDFTPKEGGAYQKLLIYGENFGTDVSKVKVKIGGKDAIVINVKSTYVYCFVPSGAFSGEIEITVGEGENAVTTTASTTFSYEKKMVVGTLCGYRNNRDDQGWRDGPFDGPEGVKCCGFSDNGRLAFDPLNKDHLYICYDGHKAIQLIDLKNRMLSSPLNINTIPTNRIRSIAFNKKIEGYADEAEYMIVAIDYDGKGDESPSVYIIKRNADGTFDDRSDIQLIAAYKQCNGATIHPINGELYFNSYEKGQVFRLDLVDYFKTIKNGGSWDPIVKNNPNTFKQLFTIADPSWEFQIFIHPTGKYAYFGVINNHYFMRSDYDEIKKEFITPYNFVGGYKQSGYRDDVGTEARMNNPCQGVFVKNPDYTGEEEYDFYFVDRLNFCVRKVTPEGIVSTYAGRGASTSLADGNQWGTDDGDLREVARFRDVSGLVYDDVKEMFYVHDQVGHTIRTISMEQEENVAGDENIPEDESTVESNE | not soluble
MSLARVGVVCHVHPDADTIGAGLALALVLDGCGKRVEVSFAAPATLPESLRSLPGCHLLVRPEVMRRDVDLVVTVDIPSVDRLGALGDLTDSGRELLVIDHHASNDLFGTANFIDPSADSTTTMVAEILDAWGKPIDPRVAHCIYAGLATDTGSFRWASVRGYRLAARLVEIGVDNATVSRTLMDSHPFTWLPLLSRVLGSAQLVSEAVGGRGLVYVVVDNREWVAARSEEVESIVDIVRTTQQAEVAAVFKEVEPHRWSVSMRAKTVNLAAVASGFGGGGHRLAAGYTTTGSIDDAVASLRAALGEGHHHHHH | not soluble
YDKEFGGFGGAPKFPMAMNLSFLLRYGQRYGDGEAVAMATDTLTAMAQGGIWDHLGGGFHRYTVDGRWLVPHFEKMLYDQALCTLALVEAAQVTGNSVFRELAKETCGFVLRELSAPAGGFYSALDADSEGREGACYLWTPAQVRDILGVADGELFCRLYAVTAWGNFEGANVLHLPLAPDAFARDEGVDPLRLQEKIAQWHILLLEARERRPRPFRDEKIITGWNGLMIAALARTFLICGDELLLEGAERAVRRVCIDLRTPAGRLVRSCHRGEASGPGFLEDYAFFIRGLLELHEATLDPRHLALARSLAHDMLRLFGDSGGGLFDTGSDAETILVRGKG | not soluble
MSEQLVTPENVTTKDGKINLLDLNRQQMREFFKDLGEKPFRADQVMKWMYHYCCDNFDEMTDINKVLRGKLKEVAEIRAPEVVEEQRSSDGTIKWAIAVGDQRVETVYIPEDDRATLCVSSQVGCALECKFCSTAQQGFNRNLRVSEIIGQVWRAAKIVGAAKVTGQRPITNVVMMGMGEPLLNLNNVVPAMEIMLDDFGFGLSKRRVTLSTSGVVPALDKLGDMIDVALAISLHAPNDEIRDEIVPINKKYNIETFLAAVRRYLEKSNANQGRVTIEYVMLDHVNDGTEHAHQLAELLKDTPCKINLIPWNPFPGAPYGRSSNSRIDRFSKVLMSYGFTTIVRKTRGDDIDAACGQLAGDVIDRTKRTLRKRMQGEAIDIKAV | soluble
MERVNERREQNNPNGCCLRDEDFSQFNSEAFLRELAADLNEDDTNDLSSSLFATSRIPEEHIRSTGLVERAEHYNKSVDQRTMTDARIAFEEEQLKNGKSPNAGTSGMENLADSGTHVPRRGRGDYFGKLRSFENGVSFPSRPPLTSEHSSSGDSYFNNSHKTTPNYRRFANSNDSSRDNSQMEYKAENDASHTSQSSNRFGFNSQINRTDIHPPAARHTFNPAAAYNGKITPDFRFNYIPNAAVPAPSVVPVIATHPGVAPPSIVPSPIRIGQRYPKRPDNMPKPSSEPKHLNHNYYQIELYGATQEDRIAQRIEKTVRQTEAPVRRF | not soluble
MNALARRAAGLLLSTICLPLTALAADPQPTHEFTLDNGLKVVVREDHRAPVVVSQIWYKVGSSYETPGQTGLSHALEHMMFKGSSKTGPGESSLILRDLGAEENAFTSDDYTAYYQVLARDRLSVALELEADRMATLKLPADEFGREIEVIKEERRLRTDDKPMGKAFERFKAMAYPASGYHTPTIGWMADLERMKVEELRHWYESWYTPNNATLVVVGDVQPDEVKALAERFFGPIPRRDVPPSKKPLELAEPGERKITLHVKTQLPSLIYGFNVPSVATAEDPRSANALRLIAALLDGGYSARIPTRLERGEELVSGASSRYDAFARGDSLFMISATPNMQKKKTLADVEAGIWRLLDDLKTKAPSAEELERVRAQVIAGVVYERDSITSQATMIGELETVGLSWKLMDKELEDLQSVTPQDIQKAANTYFTRERLSVAHVLPEEKAK | not soluble
